From IntAct's records for PubMed 20639876

B1: TIR domain-containing adapter molecule 1 (Mus musculus), Q80UF7 (parent)
chain: MDNPGPSLRGAFGILGALERDRLTHLKHKLGSLCSGSQESKLLHAMVLLALGQDTEARVSLESLKMNTVAQLVAHQWADMETTEGPEEPPDLSWTVARLYHLLAEENLCPASTRDMAYQVALRDFASQGDHQLGQLQNEAWDRCSSDIKGDPSGFQPLHSHQGSLQPPSASPAVTRSQPRPIDTPDWSWGHTLHSTNSTASLASHLEISQSPTLAFLSSHHGTHGPSKLCNTPLDTQEPQLVPEGCQEPEEISWPPSVETSVSLGLPHEISVPEVSPEEASPILPDALAAPDTSVHCPIECTELSTNSRSPLTSTTESVGKQWPITSQRSPQVPVGDDSLQNTTSSSPPAQPPSLQASPKLPPSPLSSASSPSSYPAPPTSTSPVLDHSETSDQKFYNFVVIHARADEQVALRIREKLETLGVPDGATFCEEFQVPGRGELHCLQDAIDHSGFTILLLTASFDCSLSLHQINHALMNSLTQSGRQDCVIPLLPLECSQAQLSPDTTRLLHSIVWLDEHSPIFARKVANTFKTQKLQAQRVRWKKAQEARTLKEQSIQLEAERQNVAAISAAYTAYVHSYRAWQAEMNKLGVAFGKNLSLGTPTPSWPGCPQPIPSHPQGGTPVFPYSPQPPSFPQPPCFPQPPSFPQPPSFPLPPVSSPQSQSFPSASSPAPQTPGPQPLIIHHAQMVQLGVNNHMWGHTGAQSSDDKTECSENPCMGPLTDQGEPLLETPE
B2: Myeloid differentiation primary response protein MyD88 (Mus musculus), P22366 (parent)
chain: MSAGDPRVGSGSLDSFMFSIPLVALNVGVRRRLSLFLNPRTPVAADWTLLAEEMGFEYLEIRELETRPDPTRSLLDAWQGRSGASVGRLLELLALLDREDILKELKSRIEEDCQKYLGKQQNQESEKPLQVARVESSVPQTKELGGITTLDDPLGQTPELFDAFICYCPNDIEFVQEMIRQLEQTDYRLKLCVSDRDVLPGTCVWSIASELIEKRCRRMVVVVSDDYLQSKECDFQTKFALSLSPGVQQKRLIPIKYKAMKKDFPSILRFITICDYTNPCTKSWFWTRLAKALSLP

Variants of: B1
Settings: with cblb_mouse Cblb
Target sequence in this assay (Q3TTA7 whole entry): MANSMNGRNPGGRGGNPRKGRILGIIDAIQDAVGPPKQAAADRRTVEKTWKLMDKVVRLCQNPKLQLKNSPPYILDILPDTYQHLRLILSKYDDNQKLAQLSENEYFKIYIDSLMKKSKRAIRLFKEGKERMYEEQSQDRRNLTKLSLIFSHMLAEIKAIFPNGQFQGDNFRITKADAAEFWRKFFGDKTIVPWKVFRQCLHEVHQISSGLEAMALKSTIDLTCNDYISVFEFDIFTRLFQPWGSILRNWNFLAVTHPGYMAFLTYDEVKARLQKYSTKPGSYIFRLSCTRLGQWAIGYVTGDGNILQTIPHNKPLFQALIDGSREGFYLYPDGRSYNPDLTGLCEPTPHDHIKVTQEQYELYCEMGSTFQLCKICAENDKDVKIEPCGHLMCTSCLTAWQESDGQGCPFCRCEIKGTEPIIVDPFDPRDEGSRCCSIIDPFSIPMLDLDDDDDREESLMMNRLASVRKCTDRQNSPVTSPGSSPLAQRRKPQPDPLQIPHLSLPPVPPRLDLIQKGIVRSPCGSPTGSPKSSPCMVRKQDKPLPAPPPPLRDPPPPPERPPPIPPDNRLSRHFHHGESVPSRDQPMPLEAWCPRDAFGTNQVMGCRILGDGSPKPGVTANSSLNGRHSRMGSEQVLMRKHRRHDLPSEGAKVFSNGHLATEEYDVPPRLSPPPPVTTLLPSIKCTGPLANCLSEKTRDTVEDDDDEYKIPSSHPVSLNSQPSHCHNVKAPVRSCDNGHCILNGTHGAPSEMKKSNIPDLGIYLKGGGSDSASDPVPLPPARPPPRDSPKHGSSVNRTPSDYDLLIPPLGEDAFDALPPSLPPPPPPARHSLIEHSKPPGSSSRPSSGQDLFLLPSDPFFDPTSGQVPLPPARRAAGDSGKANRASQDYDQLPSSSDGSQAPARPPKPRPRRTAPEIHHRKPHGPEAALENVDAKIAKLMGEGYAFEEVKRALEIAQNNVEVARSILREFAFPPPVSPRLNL

effect of a mutation on the interaction | Variant
decreasing interaction | Y375F

Variants of: B2
Settings: with cblb_mouse Cblb
Target sequence in this assay (Q3TTA7 whole entry): as above

effect of a mutation on the interaction | Variant
decreasing interaction | Y227F
